Reference: US12559749B2, “Methods of rescuing stop codons via genetic reassignment with ACE-tRNA” (UNIVERSITY OF IOWA RESEARCH FOUNDATION, priority 2017, dated 2026)

Test system: CFTR G542X
Test: Two-electrode voltage clamp of CFTR Cl- current in Xenopus oocytes, G542X
Assay type: cell-based
Procedure: FIGS. 20A-20D. Delivery of ACE-tRNA as small RNA supports robust suppression of G542X and W1282X nonsense mutations. FIG. 20A) CFTR cRNA with G542X or W1282X cystic fibrosis causing nonsense mutations was co-injected in Xenopus oocytes with serial dilutions of pre-folded ACE-tRNAGly and ACE-tRNATrp, respectively. Two-electrode voltage-clamp recordings of CFTR Cl— current were performed after 36 hrs. Current-voltage relationships illustrate that increasing amounts of FIG. 20B) ACE-tRNATrp and FIG. 20C) ACE-tRNAGly pre-folded RNA results in increased CFTR function (measured CFTR Cl— currents) with WT CFTR achieved in ACE-tRNAGly experiments. FIG. 20D) Dose response of G542X ACE-tRNAGly (filled circles) and W1282X ACE-tRNATrp (open squares) rescue (CFTR Cl— currents elicited at +40 mV were normalized to WT CFTR Cl— currents at +40 mV).
In vitro cRNA transcription. G5-42XUGA, W1282XUGA, and WT CFTR pGEMHE (Mense et al., 2006; PMID:1703051) plasmids were linearized by 10× excess of NheI-HF restriction enzyme (site positioned 3′ of coding region)(New England BioLabs, USA) for 3 hrs at 37° C. and purified using standard cDNA precipitation methods. All cRNAs were transcribed using the mMessage mMachine T7 Kit (ThermoFisher Scientific, USA). Purification of the cRNA from the transcription reaction was conducted on columns from the RNeasy Mini Kit (Qiagen, Germany). Concentration was determined by absorbance measurements at 260 nm and quality was confirmed on a 1% agarose gel (RNase-free). All cRNA was queued to 1 μg/ml before use and all results were generated from ≥2:2 cRNA preparations.
Expression in Xenopus laevis oocytes. Xenopus laevis oocytes (stage V and VI) were purchased from Ecocyte (Austin, TX). […]
Two-electrode voltage clamp ([…]) recordings. CFTR Cl^− currents were recorded in ND96 bath solution that contained (in mM): 96 NaCl, 2 KCl, 1 MgCl2, and 5 HEPES (pH 7.5) in the presence of a maximal CFTR activation cocktail, forskolin (10 μM; adenylate cyclase activator) and 3-isobutyl-1-methylxanthine (1 mM; phosphodiesterase inhibitor). […]

B1: Glychr19.trna2: top performing glycine ACE-tRNA UGA, SEQ ID NO: 53 (nucleic acid)
chain: GCGUUGGUGGUAUAGUGGUUAGCAUAGCUGCCUUCAAAGCAGUUGACCCGGGUUCGAUUCCCGGCCAACGCA
modifications: chemistry not given here
B1 was tested, and the Hill coefficient (dose response of G542X rescue) was about 1.4, the “level of CFTR function reached” value (normalized to WT CFTR Cl- currents) was “clear saturation at WT CFTR levels” and the “EC50 of CFTR Cl- current rescue” value (pre-folded ACE-tRNA RNA per oocyte, 36 hrs, currents at +40 mV normalized to WT CFTR) was about 20 ng.
